Measured values: patent US20220213176A1 (SHANGHAITECH UNIVERSITY, published 2022)

T1: HCoV-HKU1 spike (HCoV-HKU1, UniProt Q5MQD0 13-1356)
T1 construct: whole, on cells
T1 sequence: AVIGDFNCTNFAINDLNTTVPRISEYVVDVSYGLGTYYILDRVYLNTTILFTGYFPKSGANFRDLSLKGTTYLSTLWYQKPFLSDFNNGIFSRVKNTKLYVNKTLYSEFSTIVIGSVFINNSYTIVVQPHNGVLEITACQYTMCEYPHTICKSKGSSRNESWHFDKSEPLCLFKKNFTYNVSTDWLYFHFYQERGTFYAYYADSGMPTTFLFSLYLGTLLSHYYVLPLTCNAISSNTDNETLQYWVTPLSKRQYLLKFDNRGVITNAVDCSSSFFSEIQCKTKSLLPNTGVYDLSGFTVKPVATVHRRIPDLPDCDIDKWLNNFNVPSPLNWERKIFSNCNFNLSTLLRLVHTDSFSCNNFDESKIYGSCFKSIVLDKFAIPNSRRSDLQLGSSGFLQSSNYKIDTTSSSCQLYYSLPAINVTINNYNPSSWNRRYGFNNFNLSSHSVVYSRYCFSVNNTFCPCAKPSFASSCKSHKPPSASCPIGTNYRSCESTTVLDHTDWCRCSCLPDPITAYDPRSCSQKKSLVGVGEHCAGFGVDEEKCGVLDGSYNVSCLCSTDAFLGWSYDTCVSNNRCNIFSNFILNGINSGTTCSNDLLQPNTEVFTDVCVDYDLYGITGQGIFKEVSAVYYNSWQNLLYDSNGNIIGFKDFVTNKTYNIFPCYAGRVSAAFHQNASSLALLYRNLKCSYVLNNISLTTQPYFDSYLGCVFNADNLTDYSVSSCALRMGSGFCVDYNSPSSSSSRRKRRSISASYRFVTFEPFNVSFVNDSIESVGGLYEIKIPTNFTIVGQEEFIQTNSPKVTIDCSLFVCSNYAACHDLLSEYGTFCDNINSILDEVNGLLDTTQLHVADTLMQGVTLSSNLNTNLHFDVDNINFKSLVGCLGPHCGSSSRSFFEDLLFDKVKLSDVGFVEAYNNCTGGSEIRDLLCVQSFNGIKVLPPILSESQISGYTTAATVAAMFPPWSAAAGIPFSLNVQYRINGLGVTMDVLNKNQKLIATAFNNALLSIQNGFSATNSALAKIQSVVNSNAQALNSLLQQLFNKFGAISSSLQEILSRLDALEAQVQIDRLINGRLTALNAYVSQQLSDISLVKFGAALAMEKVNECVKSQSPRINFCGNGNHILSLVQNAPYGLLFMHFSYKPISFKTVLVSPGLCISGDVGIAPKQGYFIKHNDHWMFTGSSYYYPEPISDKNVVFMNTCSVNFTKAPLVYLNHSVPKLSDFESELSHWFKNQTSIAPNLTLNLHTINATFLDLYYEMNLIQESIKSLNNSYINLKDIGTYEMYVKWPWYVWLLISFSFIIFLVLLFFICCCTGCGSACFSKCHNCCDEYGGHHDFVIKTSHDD

T2: HCoV-OC43 spike (HCoV-OC43, UniProt P36334 14-1353)
T2 construct: whole, on cells; also called HCoV-0C43 spike
T2 sequence: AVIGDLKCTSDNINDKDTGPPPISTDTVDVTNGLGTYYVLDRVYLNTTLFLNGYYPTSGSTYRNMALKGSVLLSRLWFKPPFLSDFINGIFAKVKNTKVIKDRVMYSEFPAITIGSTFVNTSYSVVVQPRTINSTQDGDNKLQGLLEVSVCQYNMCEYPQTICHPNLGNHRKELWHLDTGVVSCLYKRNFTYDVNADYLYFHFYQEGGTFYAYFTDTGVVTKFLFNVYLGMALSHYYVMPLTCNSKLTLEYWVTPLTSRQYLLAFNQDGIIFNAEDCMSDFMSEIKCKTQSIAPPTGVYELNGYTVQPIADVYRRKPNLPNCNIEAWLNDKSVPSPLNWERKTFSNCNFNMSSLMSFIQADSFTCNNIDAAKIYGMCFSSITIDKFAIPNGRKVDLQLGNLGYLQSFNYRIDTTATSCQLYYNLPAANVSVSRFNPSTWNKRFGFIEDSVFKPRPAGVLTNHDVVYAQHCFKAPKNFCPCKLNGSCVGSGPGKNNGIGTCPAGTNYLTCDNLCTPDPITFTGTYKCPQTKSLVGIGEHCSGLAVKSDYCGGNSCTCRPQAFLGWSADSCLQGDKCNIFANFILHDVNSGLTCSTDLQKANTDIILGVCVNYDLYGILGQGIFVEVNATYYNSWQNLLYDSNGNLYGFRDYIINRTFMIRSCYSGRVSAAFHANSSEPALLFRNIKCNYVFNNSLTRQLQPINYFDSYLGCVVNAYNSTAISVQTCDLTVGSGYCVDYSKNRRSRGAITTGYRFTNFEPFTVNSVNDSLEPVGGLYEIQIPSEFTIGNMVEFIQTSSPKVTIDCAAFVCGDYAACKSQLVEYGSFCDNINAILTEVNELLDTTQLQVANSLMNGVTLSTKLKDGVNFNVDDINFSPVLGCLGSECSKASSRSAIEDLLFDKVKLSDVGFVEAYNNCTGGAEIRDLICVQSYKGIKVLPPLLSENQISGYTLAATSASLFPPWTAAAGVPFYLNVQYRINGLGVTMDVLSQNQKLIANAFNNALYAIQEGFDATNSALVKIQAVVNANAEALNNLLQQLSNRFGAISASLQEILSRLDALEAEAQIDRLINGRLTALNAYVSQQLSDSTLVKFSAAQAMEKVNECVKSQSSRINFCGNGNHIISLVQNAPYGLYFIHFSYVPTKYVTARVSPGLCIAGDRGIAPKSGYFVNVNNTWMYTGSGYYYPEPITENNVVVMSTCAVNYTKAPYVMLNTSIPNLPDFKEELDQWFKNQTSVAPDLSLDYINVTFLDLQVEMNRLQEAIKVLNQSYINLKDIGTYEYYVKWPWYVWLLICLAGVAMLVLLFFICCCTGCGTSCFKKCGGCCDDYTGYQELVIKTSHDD

B1: S-D4 (antibody, V domains shown)
VH: QVQLQESGGGVVQPGRSLRLSCEVSGFTFSDYGMHWVRQAPGKGLEWVAVIWSEGSTEYYADSVKGRFTISRDNSKDTLYLQMNSLRAEDTAVYYCARPGYPTSTDRSPAAAGARQYYYYGMDVWGQGTTVTVSS
VL: NFMLTQPHSVSESPGKTVTISCTRSGGSGAANYVQWYQQRPGSSPTTLIYEDSRRPPGVPDRFSGSVDTSSNSASLTISGLQTEDEADYYCQSYDSSNHVVFGGGTKLTVLG
notes: also called S-D4 dimer; S-D4 IgG4
B2: S-E6 (antibody, V domains shown)
VH: QVTLRESGPGLVKPSETLSLTCAVSGGSLSSVNYYWSWIRQHPGKGLEWIGYIYYSGSTNYNPSLKSRVTMSLDTSKNQFSLKLSSVTAADTAVYYCATPGAIMGALHIWGQGTLVTVSS
VL: QAVLTQPSSASSTPGQRVIISCSGSSSNIGSNTVSWYQQVPGAAPKLLIYFDYRRPSGVPDRFSGTRSGTSASLGISGLQSEDEADYYCAAWDDSLSAWVFGRGTKLTVLG
notes: also called S-E6 dimer; dimer S-E6
B3: S-B8 (antibody, V domains shown)
VH: QVQLVQSGGGLIQPGGSLRLSCAASGFTVSLSHMNWVRQAPGKGLEWVSITYGDGNSDYADSVKGRFTISRDNSKNTLYLQMNSLRAEDTAVYYCAREYYYGMDVWGQGTTVTVSS
VL: not shown
notes: also called S-B8 dimer

Legend:
[1] = biological target: spike of authentic SARS-CoV-2 virus BetaCoV/Australia/VIC01/2020 (SARS-CoV-2); test: cell-based or functional assay
HCoV-HKU1 spike = biological target: T1, HCoV-HKU1 spike; test: FACS, transfected HEK293T cells, IgG4 antibody
HCoV-OC43 spike = biological target: T2, HCoV-OC43 spike; test: FACS, transfected HEK293T cells, IgG4 antibody

| Binder | NT50, authentic virus B VIC01 neutralization [1] [nM] | binding result (HCoV-HKU1 spike) | binding result (HCoV-OC43 spike) |
| --- | --- | --- | --- |
| B1 | 2.04 | no binding | no binding |
| B2 | 0.15 | no binding | no binding |
| B3 | 0.88 | no binding | no binding |
